This assay addresses T1, IL-2βγ dual receptor (Homo sapiens, UniProt P14784+P31785).
T1 construct: Uniprot P14784 1Met-551Val was constructed into plasmid pcDNA3.1(+); Uniprot P31785 1Met-551Thr was constructed into plasmid pcDNA3.1/zeo; expressed in transfected cells; host or cells: 293EC18 cells, transient co-transfection with pCMV/JAK3 and PGL4.52/STAT5RE
T1 sequence (P14784 27-551): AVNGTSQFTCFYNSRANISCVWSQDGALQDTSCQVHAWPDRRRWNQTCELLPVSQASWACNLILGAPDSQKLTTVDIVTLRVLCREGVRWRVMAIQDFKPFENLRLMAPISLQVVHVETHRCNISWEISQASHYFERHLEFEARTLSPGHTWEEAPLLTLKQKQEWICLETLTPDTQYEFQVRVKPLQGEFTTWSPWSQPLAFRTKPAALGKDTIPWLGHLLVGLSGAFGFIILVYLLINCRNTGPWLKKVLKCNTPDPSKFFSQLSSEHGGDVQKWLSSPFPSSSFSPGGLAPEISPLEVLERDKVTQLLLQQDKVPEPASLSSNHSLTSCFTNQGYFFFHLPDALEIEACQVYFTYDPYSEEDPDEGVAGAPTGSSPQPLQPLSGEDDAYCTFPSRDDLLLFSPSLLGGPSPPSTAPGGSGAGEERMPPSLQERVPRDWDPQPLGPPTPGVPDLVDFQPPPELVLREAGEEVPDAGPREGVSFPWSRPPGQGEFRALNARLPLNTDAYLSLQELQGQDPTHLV
T1 sequence (P31785 23-369): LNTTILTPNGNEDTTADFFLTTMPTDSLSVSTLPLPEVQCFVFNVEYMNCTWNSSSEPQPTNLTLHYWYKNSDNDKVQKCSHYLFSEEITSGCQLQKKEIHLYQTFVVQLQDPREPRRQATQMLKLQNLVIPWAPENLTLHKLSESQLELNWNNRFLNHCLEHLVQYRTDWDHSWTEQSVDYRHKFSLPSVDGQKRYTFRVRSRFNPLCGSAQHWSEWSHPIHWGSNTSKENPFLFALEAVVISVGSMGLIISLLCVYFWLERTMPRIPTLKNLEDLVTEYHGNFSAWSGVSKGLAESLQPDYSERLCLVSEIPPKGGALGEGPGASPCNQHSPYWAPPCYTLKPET
The assay is described as follows: STAT5 reporter gene assay, activation of IL-2βγ dual receptor in 293EC18/βγ/JAK3/STAT5 cells. The assay is classed as cell-based. The following applies: for activation effect on the IL-2Rβγ dual receptor compared with control IL-2 N88R: Figure 1, concentration of 65.2 nM. As to the method:
Since the binding of IL-2 to the β and γ subunits of its receptor induces STAT5 phosphorylation, which subsequently leads to dimerization and translocation into the nucleus to promote target gene transcription, this example evaluates the ability of the mutant IL-2 polypeptides to induce signaling through the IL-2 receptor by measuring STAT5 phosphorylation.
Adherent 293EC18 cells were cultured to about 90% confluence using conventional methods. After trypsin digestion, the cells were resuspended in cell culture medium to 4×10^5 cells/ml and 50 µl/well were added to two 96-well cell culture plates. After incubation at 37°C for 48 h, the supernatant was aspirated and fresh culture medium was added. According to the manufacturer's method, four plasmids, pcDNA3.1(+)/CD122 (constructed by Nanjing Novoacine Biotechnology Co., Ltd, Uniprot P14784 1Met-551Val was constructed into plasmid pcDNA3.1(+)), pcDNA3.1/puro/CD132 (constructed by Nanjing Novoacine Biotechnology Co., Ltd, Uniprot P31785 1Met-551Thr was constructed into plasmid pcDNA3.1/zeo), pCMV/JAK3 (Sino Biological), and PGL4.52/STAT5RE (Promega) were transiently transfected into 293EC18 cells using a cationic transfection reagent (ExFect Transfection Reagent, Vazyme). The obtained cells were named 293EC18/βγ/JAK3/STAT5 cells. Alternatively, five plasmids, pcDNA3.1/zeo/CD25 (constructed by Nanjing Novoacine Biotechnology Co., Ltd, Uniprot P01589 1Met-551Ile constructed into plasmid pcDNA3.1/zeo), pcDNA3.1(+)/CD122 (constructed by Nanjing Novoacine Biotechnology Co., Ltd, Uniprot P14784 1Met-551Val constructed into plasmid pcDNA3.1(+)), pcDNA3.1/puro/CD132 (constructed by Nanjing Novoacine Biotechnology Co., Ltd, UniprotP31785 1Met-551Thr constructed into plasmid pcDNA3.1/zeo), pCMV/JAK3 (Sino Biological), and PGL4.52/STAT5RE (Promega) were transiently transferred into 293EC18 cells, and the obtained cells were named 293EC18/αβγ/JAK3/STAT5 cells. The transfected cells were incubated at 37°C and 5% CO2 for another 6 h.
Each IL2 mutant was diluted 4-fold in a gradient manner using PBS buffer, with a total of 11 dilutions and a starting concentration of 65.2 nM. In the above cell culture plates, 50 µl/well of each of the serially diluted IL2 mutant samples was added in duplicate. Then, the cell culture plate was placed in an incubator at 37°C and 5% CO2 for overnight culture. The cell culture plates were kept at room temperature for 20 ± 5 minutes to equilibrate the plates to room temperature. Bio-Lite Luciferase Assay System reagents that have been mixed and equilibrated to room temperature were added to the cell culture plates to be tested at 100 µl/well, placed on a microplate shaker at 450 rpm to mix for 2 minutes, then allowed to stand at room temperature for 3 minutes, and the chemiluminescence value was detected with an enzyme plate reader.
The logarithm of the final concentration of each IL-2 mutant sample was used as the X-axis, and the chemiluminescence detection results were used as the Y-axis for plotting. Data were analyzed using the four-parameter logistic regression model in GraphPad Prism 9. Table 2 EC50 values for the activation of the IL-2αβγ triple receptor by PEG-IL-2 mutants as determined by a reporter gene assay.
According to the method of Example 3, each polyethylene glycol-modified mutant obtained in this example was assessed for the binding preference to the IL2 receptors by a reporter assay. Table 4 EC50 values for the activation of the IL-2αβγ triple receptor by PEG-IL-2 mutants as determined by a reporter gene assay.
Referring to Example 3, the phosphorylation of STAT5 was used to evaluate the ability of the PEG-modified IL-2 mutants having a non-natural amino acid mutation prepared in Example 14 to induce signal transduction via the IL-2 receptor. […]
(In general: Reporter assays use an easily measured gene product as a stand-in for the process of interest.)

B1: 80K-1PEG-IL2-N88R-N77C: IL-2 mutant N88R, N77C, conjugation site 77, PEG molecular weight 80kD (conjugate)
chain: APTSSSTKKTQLQLEHLLLDLQMILNGINNYKNPKLTRMLTFKFYMPKKATELKHLQCLEEELKPLEEVLNLAQSKC(PEG 80 kDa)FHLRPRDLISRINVIVLELKGSETTFMCEYADETATIVEFLNRWITFSQSIISTLT
On to B1, for which the “activation effect on the IL-2Rβγ dual receptor compared with control IL-2 N88R” value was “lower activation effects”. Further, the “activation effect on the IL-2Rβγ dual receptor compared with control IL-2 N88R” value (listed as 80k-PEG-IL2-N88R-N77C) was “the most significant reduction in activation ability”. Besides, the “activation effect on / affinity to IL-2Rβγ dual receptor compared with control IL-2 N88R” value (Figure 2, all concentrations) was “further reduced the affinity to IL-2Rβγ”.
